Laboratory results published in publication PMC4564277, “Biochemical and Structural Insights into the Mechanism of DNA Recognition by Arabidopsis [sequence] INSENSITIVE3” (PLoS ONE, 2015).

Key:
EIN3 91-352 = target: T1, EIN3 91-352 (Arabidopsis thaliana, UniProt O24606 91-352); assay: EMSA; EMSA: 1 nM biotin probe, 10 mM Tris-HCl pH 7.5, 40 mM KCl, 3 mM MgCl2, 1 mM EDTA, 10% glycerol, 1 mM DTT, 1 ug poly(dI-dC) in 20 uL, room temperature, 30 min; settings: protein: recombinant; tags: N-terminal His6 (pET-28a); chain copies: 2; label: 3' biotin on forward strand; blunt
T1 sequence: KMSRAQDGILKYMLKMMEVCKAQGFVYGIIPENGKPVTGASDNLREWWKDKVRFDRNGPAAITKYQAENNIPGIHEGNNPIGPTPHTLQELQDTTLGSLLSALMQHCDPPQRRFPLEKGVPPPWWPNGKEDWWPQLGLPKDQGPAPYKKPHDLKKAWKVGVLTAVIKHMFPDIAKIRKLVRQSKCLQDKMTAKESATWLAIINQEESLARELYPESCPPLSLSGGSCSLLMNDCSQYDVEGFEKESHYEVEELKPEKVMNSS

[1] = target: T2, EIN3 82-352 (optimal DBD) (Arabidopsis thaliana, UniProt O24606 82-352); assay: as above; settings: protein: recombinant, tags: N-terminal His6 (pET-28a), chain copies: 2
T2 sequence: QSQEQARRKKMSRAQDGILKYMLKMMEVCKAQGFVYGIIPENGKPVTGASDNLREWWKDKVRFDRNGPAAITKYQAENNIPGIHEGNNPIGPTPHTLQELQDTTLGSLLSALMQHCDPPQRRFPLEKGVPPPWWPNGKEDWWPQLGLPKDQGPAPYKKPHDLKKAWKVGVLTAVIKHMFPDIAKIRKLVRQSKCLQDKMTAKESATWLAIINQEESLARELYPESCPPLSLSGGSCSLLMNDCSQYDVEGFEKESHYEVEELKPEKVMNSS

EIN3 98-352 = target: T3, EIN3 98-352 (Arabidopsis thaliana, UniProt O24606 98-352); assay: as above; settings: protein: recombinant; tags: N-terminal His6 (pET-28a); chain copies: 2; label: 3' biotin on forward strand; blunt
T3 sequence: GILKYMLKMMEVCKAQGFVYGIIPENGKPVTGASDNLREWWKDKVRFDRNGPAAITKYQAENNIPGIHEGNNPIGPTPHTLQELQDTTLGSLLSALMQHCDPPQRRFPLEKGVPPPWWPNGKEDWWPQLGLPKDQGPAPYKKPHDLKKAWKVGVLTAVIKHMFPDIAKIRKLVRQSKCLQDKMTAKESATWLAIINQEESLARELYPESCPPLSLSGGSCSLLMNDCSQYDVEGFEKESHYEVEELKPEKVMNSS

EIN3 68-352 = target: T4, EIN3 68-352 (Arabidopsis thaliana, UniProt O24606 68-352); assay: as above; settings: protein: recombinant; tags: N-terminal His6 (pET-28a); chain copies: 2; label: 3' biotin on forward strand; blunt
T4 sequence: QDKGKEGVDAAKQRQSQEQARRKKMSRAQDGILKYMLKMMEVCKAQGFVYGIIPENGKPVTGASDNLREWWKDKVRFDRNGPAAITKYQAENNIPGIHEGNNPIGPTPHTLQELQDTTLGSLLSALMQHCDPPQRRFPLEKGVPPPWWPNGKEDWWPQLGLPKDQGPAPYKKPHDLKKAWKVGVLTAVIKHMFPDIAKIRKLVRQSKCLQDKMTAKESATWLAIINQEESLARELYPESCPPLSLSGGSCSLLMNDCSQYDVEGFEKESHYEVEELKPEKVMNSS

EIN3 1-352 = target: T5, EIN3 1-352 (Arabidopsis thaliana, UniProt O24606 1-352); assay: as above; settings: protein: recombinant; tags: N-terminal His6 (pET-28a); chain copies: 2; label: 3' biotin on forward strand; blunt
T5 sequence: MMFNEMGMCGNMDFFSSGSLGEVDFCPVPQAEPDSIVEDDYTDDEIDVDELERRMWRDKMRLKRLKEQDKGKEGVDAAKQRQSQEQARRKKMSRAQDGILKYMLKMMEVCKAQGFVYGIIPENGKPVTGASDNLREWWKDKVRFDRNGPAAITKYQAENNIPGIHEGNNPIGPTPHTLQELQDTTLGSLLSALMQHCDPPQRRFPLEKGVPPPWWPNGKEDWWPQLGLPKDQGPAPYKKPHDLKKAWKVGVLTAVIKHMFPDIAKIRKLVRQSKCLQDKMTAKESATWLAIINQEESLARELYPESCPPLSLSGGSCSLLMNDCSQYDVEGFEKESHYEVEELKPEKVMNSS

EIN3 82-352 P216S = target: T6, EIN3 82-352 P216S (Arabidopsis thaliana, UniProt O24606 82-352, P216S); assay: as above; settings: protein: recombinant; tags: N-terminal His6 (pET-28a); chain copies: 2; label: 3' biotin on forward strand; blunt
T6 sequence: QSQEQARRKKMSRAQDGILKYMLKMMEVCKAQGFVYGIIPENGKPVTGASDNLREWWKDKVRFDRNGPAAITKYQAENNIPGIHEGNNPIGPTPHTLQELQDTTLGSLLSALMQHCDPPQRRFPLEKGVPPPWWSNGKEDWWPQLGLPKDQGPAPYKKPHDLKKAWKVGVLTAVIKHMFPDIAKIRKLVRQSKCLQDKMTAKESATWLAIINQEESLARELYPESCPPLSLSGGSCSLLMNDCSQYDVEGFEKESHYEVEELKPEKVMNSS

[2] = target: the molecule itself; assay: SEC-MALS; Superdex 200 analytical column, 1 ml/min, 10 mM Tris–HCl pH 7.5, 100 mM NaCl, 1 mM DTT, 4°C; no DNA
[3] = target: T2, EIN3 82-352 (optimal DBD); assay: EMSA; EMSA: 1 nM biotin probe, 10 mM Tris-HCl pH 7.5, 40 mM KCl, 3 mM MgCl2, 1 mM EDTA, 10% glycerol, 1 mM DTT, 1 ug poly(dI-dC) in 20 uL, room temperature, 30 min; settings: protein: recombinant; tags: N-terminal His6 (pET-28a); chain copies: 2; label: 3' biotin on forward strand; blunt
[4] = target: T2, EIN3 82-352 (optimal DBD); assay: EMSA; tighter than ERF1; EMSA: 1 nM biotin probe, 10 mM Tris-HCl pH 7.5, 40 mM KCl, 3 mM MgCl2, 1 mM EDTA, 10% glycerol, 1 mM DTT, 1 ug poly(dI-dC) in 20 uL, room temperature, 30 min; settings: protein: recombinant; tags: N-terminal His6 (pET-28a); chain copies: 2; label: 3' biotin on forward strand; blunt
[5] = label: 3' biotin on forward strand, blunt

B1: ERF1 (dsDNA)
DNA 1: GTTGTTTGGGATTCAAGGGGCATGTATCTTGAATCC
DNA 2: GGATTCAAGATACATGCCCCTTGAATCCCAAACAAC
B1: binds (EIN3 91-352); binds [1, 5]; binds (EIN3 98-352). B1: binds (EIN3 68-352); binds (EIN3 1-352); binds (EIN3 82-352 P216S).

B2: 2EBS-S10-R (dsDNA)
DNA 1: AAGATGTATGCAAAAAAGCATACATCTT
DNA 2: AAGATGTATGCTTTTTTGCATACATCTT
Binder B2 has a Kd [1, 5] of about 1240 nM.

B3: EIN3 82–352 (optimal DNA-binding domain of Arabidopsis ETHYLENE …3) (domain or fragment, UniProt O24606 82-352, looked up)
chain: QSQEQARRKKMSRAQDGILKYMLKMMEVCKAQGFVYGIIPENGKPVTGASDNLREWWKDKVRFDRNGPAAITKYQAENNIPGIHEGNNPIGPTPHTLQELQDTTLGSLLSALMQHCDPPQRRFPLEKGVPPPWWPNGKEDWWPQLGLPKDQGPAPYKKPHDLKKAWKVGVLTAVIKHMFPDIAKIRKLVRQSKCLQDKMTAKESATWLAIINQEESLARELYPESCPPLSLSGGSCSLLMNDCSQYDVEGFEKESHYEVEELKPEKVMNSS
notes: numbering based on UniProt O24606; Cloned into NheI/BamHI of pET-28a; Printed predicted Mw: monomer 31.29 kDa, dimer 62.58 kDa; also called optimal DBD; EIN3 truncation 82–352; source: E. coli Transetta (DE3), purified (Ni-NTA, Superdex 75 size exclusion)
B3 was tested, and the “stoichiometry N” value [2] was 2.

B4: 0EBS-S10 (dsDNA)
DNA 1: AAGTCGATCGCAAAAAAGCGATCGACTT
DNA 2: AAGTCGATCGCTTTTTTGCGATCGACTT
B4 gave a Kd [1, 5] of about 2280 nM.

B5: 2EBS-S10-F (ssDNA)
DNA: AAGATACATGCAAAAAAGCATGTATCTT
B5: no binding ([1]; label: 3' biotin, single strand).

B6: 2EBS-S10-2 (dsDNA)
DNA 1: AAGGTACATGCAAAAAAGCATGTACCTT
DNA 2: AAGGTACATGCTTTTTTGCATGTACCTT
B6: binds [1, 5].

B7: 1EBS-S10 (dsDNA)
DNA 1: AAGATACATGCAAAAAAGCGATCGACTT
DNA 2: AAGTCGATCGCTTTTTTGCATGTATCTT
Binder B7 has a Kd [1, 5] of about 690 nM.

B8: 2EBS-S8 (dsDNA)
DNA 1: AAGATACATGCAAAAGCATGTATCTT
DNA 2: AAGATACATGCTTTTGCATGTATCTT
In the case of B8, the binding signal [3] is reported as ~3 fold higher Kd than 2EBS-S10.

B9: 2EBS-S10-36 (dsDNA)
DNA 1: TGAAGATACATGCAATTAAGCATGTATCTTGAATCC
DNA 2: GGATTCAAGATACATGCTTAATTGCATGTATCTTCA
B9: binds [4].

B10: 2EBS-S10 (dsDNA)
DNA 1: AAGATACATGCAAAAAAGCATGTATCTT
DNA 2: AAGATACATGCTTTTTTGCATGTATCTT
In the case of B10, the Kd [1, 5] is reported as about 110 nM.

B11: 2EBS-S5 (dsDNA)
DNA 1: AAGATACATGCAGCATGTATCTT
DNA 2: AAGATACATGCTGCATGTATCTT
With B11 the binding signal [3] was ~15 fold higher Kd than 2EBS-S10.
